Where two headings read alike, the source gives them in different places.
Tests used:
Experiment in all cases: BLI
[1] = target: T1, GST-tagged AIM2 (Invitrogen) (UniProt O14862 1-343)
T1 sequence (looked up): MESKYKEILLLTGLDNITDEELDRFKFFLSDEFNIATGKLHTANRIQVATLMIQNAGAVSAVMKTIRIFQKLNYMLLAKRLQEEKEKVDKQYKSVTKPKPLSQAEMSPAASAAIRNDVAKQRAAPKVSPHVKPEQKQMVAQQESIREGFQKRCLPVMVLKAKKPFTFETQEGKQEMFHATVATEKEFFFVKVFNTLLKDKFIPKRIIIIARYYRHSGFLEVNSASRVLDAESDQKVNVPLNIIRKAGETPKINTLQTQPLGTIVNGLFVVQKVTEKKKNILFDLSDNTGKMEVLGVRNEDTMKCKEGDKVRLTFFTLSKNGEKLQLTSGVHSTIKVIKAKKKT

[2] = target: T1, GST-tagged AIM2 (Invitrogen); remark: listed apart in the source
[3] = target: T1, GST-tagged AIM2 (Invitrogen); remark: listed apart in the source
[4] = target: T1, GST-tagged AIM2 (Invitrogen); remark: listed apart in the source
[5] = target: T1, GST-tagged AIM2 (Invitrogen); remark: listed apart in the source

Row | Binder | Kd [4] | koff [4] | kon [4] | also measured
1 | Recombinant HMGB1 (disulfide HMGB1, not treated with DTT) (natural protein, human, UniProt P09429 1-215, looked up, disulfide bond between cysteines 23 and 45 (the paper calls the protein without DTT disulfide HMGB1)) MGKGDPKKPRGKMSSYAFFVQTCREEHKKKHPDASVNFSEFSKKCSERWKTMSAKEKGKFEDMAKADKARYEREMKTYIPPKGETKKKFKDPNAPKRPPSAFFLFCSEYRPKIKGEHPGLSIGDVAKKLGEMWNNTAADDKQPYEKKAAKLKEKYEKDIAAYRAKGKPDAAKKGVVKAEKSKKKKEEEEDEEDEEDEEEEEDEEDEDEEEDDDDE | 23 nM | 0.00034 s⁻¹ | 14000 M⁻¹ s⁻¹ | Kd [1]: 20 nM; koff [1]: 0.00034 s⁻¹; kon [1]: 17000 M⁻¹ s⁻¹; Kd [2]: 8 nM; koff [2]: 0.00014 s⁻¹; kon [2]: 17000 M⁻¹ s⁻¹; Kd [3]: 25 nM; koff [3]: 0.00033 s⁻¹; kon [3]: 13000 M⁻¹ s⁻¹
2 | Recombinant HMGB1, fully reduced all-thiol form (5 mM DTT) (natural protein, human, UniProt P09429 1-215, looked up) MGKGDPKKPRGKMSSYAFFVQTCREEHKKKHPDASVNFSEFSKKCSERWKTMSAKEKGKFEDMAKADKARYEREMKTYIPPKGETKKKFKDPNAPKRPPSAFFLFCSEYRPKIKGEHPGLSIGDVAKKLGEMWNNTAADDKQPYEKKAAKLKEKYEKDIAAYRAKGKPDAAKKGVVKAEKSKKKKEEEEDEEDEEDEEEEEDEEDEDEEEDDDDE |  |  |  | Kd [5]: 13 nM; koff [5]: 0.00038 s⁻¹; kon [5]: 30000 M⁻¹ s⁻¹
3 | Recombinant HMGB1 A box (disulfide form, not treated with DTT) (domain or fragment, disulfide form (the paper calls the A box without DTT its disulfide form)) MGKGDPKKPRGKMSSYAFFVQTCREEHKKKHPDASVNFSEFSKKCSERWKTMSAKEKGKFEDMAKADKARYEREMKTYI | 41 nM | 0.00261 s⁻¹ | 64000 M⁻¹ s⁻¹ | 

The remaining binders from weak to strong by Kd [4], led by results:

Row | Kd [4] | koff [4] | kon [4] | Binder | also measured
4 | 13 nM | 0.00036 s⁻¹ | 27000 M⁻¹ s⁻¹ | Recombinant HMGB1(C45S) (natural protein, human, UniProt P09429 1-215, looked up) MGKGDPKKPRGKMSSYAFFVQTCREEHKKKHPDASVNFSEFSKKSSERWKTMSAKEKGKFEDMAKADKARYEREMKTYIPPKGETKKKFKDPNAPKRPPSAFFLFCSEYRPKIKGEHPGLSIGDVAKKLGEMWNNTAADDKQPYEKKAAKLKEKYEKDIAAYRAKGKPDAAKKGVVKAEKSKKKKEEEEDEEDEEDEEEEEDEEDEDEEEDDDDE | 
5 | 12 nM | 0.0003 s⁻¹ | 25000 M⁻¹ s⁻¹ | Recombinant HMGB1(C23S) (natural protein, human, UniProt P09429 1-215, looked up) MGKGDPKKPRGKMSSYAFFVQTSREEHKKKHPDASVNFSEFSKKCSERWKTMSAKEKGKFEDMAKADKARYEREMKTYIPPKGETKKKFKDPNAPKRPPSAFFLFCSEYRPKIKGEHPGLSIGDVAKKLGEMWNNTAADDKQPYEKKAAKLKEKYEKDIAAYRAKGKPDAAKKGVVKAEKSKKKKEEEEDEEDEEDEEEEEDEEDEDEEEDDDDE | 

Source: article PMC5191963 (Hepatology (Baltimore, Md.), 2016)
